Experiment [1] concerns the target T1, cynomolgus monkey TfR ECD (Macaca fascicularis).
T1 chain: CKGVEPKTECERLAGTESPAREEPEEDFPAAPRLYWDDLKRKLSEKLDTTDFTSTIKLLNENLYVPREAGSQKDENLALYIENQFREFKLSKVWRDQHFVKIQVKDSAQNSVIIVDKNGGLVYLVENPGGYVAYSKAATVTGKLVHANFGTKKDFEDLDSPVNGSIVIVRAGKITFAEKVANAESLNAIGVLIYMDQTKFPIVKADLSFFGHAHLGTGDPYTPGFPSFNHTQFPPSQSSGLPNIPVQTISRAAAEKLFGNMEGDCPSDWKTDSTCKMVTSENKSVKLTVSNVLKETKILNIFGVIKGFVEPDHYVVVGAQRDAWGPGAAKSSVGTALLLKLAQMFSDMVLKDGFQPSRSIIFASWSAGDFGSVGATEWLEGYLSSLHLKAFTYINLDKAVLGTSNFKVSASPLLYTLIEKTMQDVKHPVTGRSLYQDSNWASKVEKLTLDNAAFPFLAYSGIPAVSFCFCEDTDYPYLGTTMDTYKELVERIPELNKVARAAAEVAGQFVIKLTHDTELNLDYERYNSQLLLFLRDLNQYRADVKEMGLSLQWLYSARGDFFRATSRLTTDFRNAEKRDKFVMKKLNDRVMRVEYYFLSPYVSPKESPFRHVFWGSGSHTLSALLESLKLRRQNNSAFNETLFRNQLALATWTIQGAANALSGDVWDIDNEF
Kind of experiment: SPR.

Experiment [2] addresses human TfR ECD (human). Kind of experiment: SPR. Background: Surface plasmon resonance follows binding to a sensor surface in real time, without labels.

Broadly, the Kd is a measure of binding affinity in units of concentration.

Changes are numbered by the printed parent chain.

B1: hTfR affinity peptide 1 (designed binder)
chain: QVQLVESGGGLVHPGGSLRLSCVASGTSFSLNVVTWYRQALGKQREWVATINQSEAPTYADSVKGRFTISRDGAKNTVYLQMNSLVTEDTALYYCYDRYNEIRGQGTQVTVSS
In the case of B1, the Kd was 17.6 nM in experiment [1] and 16.5 nM in experiment [2].

B2: hTfR affinity peptide 2 (designed binder)
chain: B1 chain with R19S, V23A, L31F, V33T, Q53G, E55G, Q81L
In the case of B2, the Kd turned out to be 17.6 nM in experiment [1] and 16.5 nM in experiment [2].

The values above are taken from patent US20260285942 (published 2026).
